Experiment [1] concerns the target human CD28 (endogenously expressed on primary human T cells) (human) (UniProt P10747). The experiment in a line: flow cytometry, primary human T cells. A general note: In flow cytometry, cells or beads pass a laser one at a time.
For experiment [2], the target named is human CTLA-4 (human) (UniProt P16410). Put plainly: flow cytometry on CHO/CTLA-4 cells.
Experiment [3] addresses T1, human CD28 on cells (human, UniProt P10747 19-220). The experiment in a line: cell-based or functional assay.
Experiment [4] has as its target T1, human CD28 on cells. Put plainly: flow cytometry, primary human T cells. As for the experimental part: Binding affinity to CD28 was determined using primary human T cells which endogenously express CD28. Binding to PD-L1 was determined using SCC152 cells transduced with human PD-L1. Binding to CTLA-4 was measured using Chinese hamster ovary (CHO) cells stably transduced to express human CTLA-4.
For staining and analysis by flow cytometry, 75,000 human T cells, SCC152/PD-L1 cells, or CHO/CTLA-4 cells were plated in 96-well round-bottom plates. Cells were spun down and resuspended in staining buffer (PBS (phosphate buffered saline), 1% BSA (bovine serum albumin), 1 mM EDTA, and 0.1% sodium azide) for 20 minutes to block non-specific binding. Afterwards, cells were centrifuged, stain buffer aspirated, and then resuspended in 50 μL of a 1:5 serial dilution of each CD80-Fc candidate variant starting at 100 nM ending at 0.8 nM. Primary staining was performed on ice for 60 minutes, before washing cells in […] staining buffer three times. PE-conjugated anti-human Fc (Jackson ImmunoResearch, USA) was diluted 1:250 in 50 μL staining buffer and added to cells and incubated another 30 minutes at 4° C. Cells were washed two times in 150 μL stain buffer and then fixed in 2% formaldehyde/PBS for 5 minutes at room temperature. Samples were analyzed CytoFLEX LX flow cytometer (Beckman Coulter, USA). Median Fluorescence Intensity (MFI) was calculated for each cell type using the CytExpert software from Beckman Coulter.
Binding assays were carried out to assess the specificity and affinity of multivalent proteins to cell-expressed CTLA-4, CD28, and PD-L1 counter structures.

Sequence of human CTLA-4 (human) (P16410 36-223): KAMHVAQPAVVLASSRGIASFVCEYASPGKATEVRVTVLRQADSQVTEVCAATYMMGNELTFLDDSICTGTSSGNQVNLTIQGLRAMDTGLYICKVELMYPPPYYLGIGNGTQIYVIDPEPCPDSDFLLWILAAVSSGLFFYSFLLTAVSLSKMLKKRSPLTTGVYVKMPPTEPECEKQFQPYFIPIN

In experiment [1], “CD80_227-Fc, variant CD80 IgV-Fc V11W/T28H/D46Q/V68L/L85E (Fc fusion)” registered an MFI (anti-human Fc) at 0.8 nM of 193 MFI, an MFI (anti-human Fc) at 4 nM of 209 MFI, an MFI (anti-human Fc) at 20 nM of 224 MFI and an MFI (anti-human Fc) at 100 nM of 283 MFI. In addition, the fold change of MFI vs WT CD80 at 20 nM in experiment [1] was 1.2 fold.

In experiment [1], “CD80_196-Fc, variant CD80 IgV-Fc V11Y/M42W/E52K/T62A/L85E (Fc fusion)” yielded an MFI (anti-human Fc) at 0.8 nM of 245 MFI, an MFI (anti-human Fc) at 4 nM of 247 MFI, an MFI (anti-human Fc) at 20 nM of 274 MFI and an MFI (anti-human Fc) at 100 nM of 301 MFI. The substance further registered a fold change of MFI vs WT CD80 at 20 nM in experiment [1] of 1.5 fold.

For the substance “CD80_168 variant CD80 IgV-Fc (K9N, E10G, N63S, L85E) (Fc fusion)”, in experiment [2], the MFI at 0.8 nM came out at 415 MFI, the MFI at 4 nM amounted to 631 MFI, the MFI at 20 nM is 830 MFI and the MFI at 100 nM worked out at 3160 MFI. Besides, the fold change vs WT CD80 at 20 nM in experiment [2] was 0 fold.

For the substance WT CD80 ECD-Fc IgG4 (Fc fusion), in experiment [3], the Rel. Luminescence Units (RLU) at 2 nM, K562/OKT3/PD-L1 + Jurkat/IL-2 reporter stood at 2830 RLU; the Rel. Luminescence Units (RLU) at 10 nM, K562/OKT3/PD-L1 + Jurkat/IL-2 reporter was 2660 RLU; the Rel. Luminescence Units (RLU) at 50 nM, K562/OKT3/PD-L1 + Jurkat/IL-2 reporter stood at 2440 RLU; the Rel. Luminescence Units (RLU) at 250 nM, K562/OKT3/PD-L1 + Jurkat/IL-2 reporter was 2640 RLU. In addition, in experiment [4], the Anti-Human Fc (MFI) at 0.8 nM was 178 MFI, the Anti-Human Fc (MFI) at 4 nM was determined as 168 MFI, the Anti-Human Fc (MFI) at 20 nM worked out at 180 MFI and the Anti-Human Fc (MFI) at 100 nM stood at 184 MFI.

Consider “CD80_223-Fc, variant CD80 IgV-Fc E10S/V68M/Y87P (Fc fusion)”, for which, in experiment [1], the MFI (anti-human Fc) at 0.8 nM is 190 MFI, the MFI (anti-human Fc) at 4 nM worked out at 195 MFI, the MFI (anti-human Fc) at 20 nM was determined as 223 MFI and the MFI (anti-human Fc) at 100 nM worked out at 318 MFI. In experiment [1], this substance showed a fold change of MFI vs WT CD80 at 20 nM of 1.2 fold.

With “wild-type CD80 ECD-Fc (unmodified CD80 ECD fused to IgG4 Fc) (Fc fusion)”, in experiment [1], the MFI (anti-human Fc) at 0.8 nM stood at 178 MFI, the MFI (anti-human Fc) at 4 nM is 168 MFI, the MFI (anti-human Fc) at 20 nM turned out to be 180 MFI and the MFI (anti-human Fc) at 100 nM is 184 MFI.

In experiment [1], “CD80_181-Fc, variant CD80 IgV-Fc K9S/E10R/V11Y/M47L/A71G (Fc fusion)” yielded an MFI (anti-human Fc) at 4 nM of 212 MFI and an MFI (anti-human Fc) at 100 nM of 313 MFI.

Source of the values: US20250243260A1 (ALPINE IMMUNE SCIENCES, published 2025).
